B1: ZNF263 (parent)
chain: QRTHTGEKPYKCPECGEIFAHSSN
B2: EPB41L3 (parent)
chain: SDYISEFRFAPNHTKELEDKVIEL

Variants of: B1
Test: protein stability index of a GFP-peptide fusion (GPS, HEK-293T) (PSI 1-6); higher = more stable
Conditions: c terminus: a fixed tail appended
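Also: lentivirally expressed fusions sorted by FACS into six bins by GFP to DsRed ratio, PSI derived from sequencing read proportions per bin multiplied by bin number.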

Protein stability index of substitutions, site by site:
E14: F 3.09, D 3.1, K 3.75, W 2.63, C 3.71, I 3.25, S 3.77, N 4.24, M 3.82, Y 2.97, P 3.52, G 3.31, R 3.77, L 2.34, Q 2.73, A 4.22, H 3.82, V 2.95, T 3.12
Y10: A 3.4, H 3.7, E 4.04, K 3.93, S 3.98, C 4.75, P 4.31, N 4.17, D 4.31, M 3.66, T 4.55, V 3.93, L 3.55, W 3.46, G 3.48, R 3.79, F 3.25, Q 3.5, I 3.59
Q1: M 2.71, R 2.97, A 2.49, Y 2.57, S 3.14, D 3.36, K 2.72, V 2.85, G 3.06, T 2.82, F 2.74, H 3.6, N 3.46, L 2.76, C 4.76, W 2.01, P 3.7, E 3.46, I 2.54
K8: V 3, G 3.81, R 3.74, E 3.82, P 3.4, A 3.31, C 5.15, Y 3.34, L 3.41, W 3.3, S 3.36, F 2.89, D 3.3, T 3.28, Q 3.38, M 3.4, H 3.35, I 2.66, N 3.46
K11: Q 3.13, T 2.98, W 3.23, I 3.1, H 3.39, Y 3.03, N 3.52, M 2.97, A 3.56, F 3.23, E 3.99, V 3.17, S 3.83, P 4.12, R 3.23, L 3.39, C 3.62, D 4.28, G 3.54
C12: M 4.35, H 4.13, R 4.2, K 4.26, P 4.42, D 5.18, I 3.6, W 3.62, S 4.52, Y 4.3, T 4.57, E 4.53, L 3.77, N 4.45, G 3.98, Q 4.35, F 4.12, A 4.27, V 3.31
H4: Q 3.52, W 3.08, D 3.98, I 3.01, Y 2.77, C 3.29, N 3.28, P 3.27, K 3.77, T 3.02, M 3.44, G 3.25, V 2.85, A 2.92, F 3.37, S 3.7, E 3.02, R 3.58, L 3.4
C15: G 4.96, D 4.8, F 3.39, N 4.76, M 4.88, I 4.04, L 3.97, P 4.51, E 4.82, K 4.75, A 4.3, Q 4.48, H 4.09
R2: K 2.92, C 4.86, I 3.32, P 3.77, A 3.34, S 3.88, D 4.06, Q 3.3, N 4.07, H 4.35, Y 3.02, T 3.45, G 4.29, W 2.9, V 2.88, L 3.6, E 3.78, M 2.62, F 2.82
T5: L 2.99, F 2.92, K 3, Y 3.11, I 3.03, H 3.75, W 2.33, G 3.41, Q 3.65, D 3.6, E 2.89, N 3.57, V 3.06, P 2.74, M 3.09, R 2.27, S 3.21, C 3.81, A 3.25
G6: M 3.04, R 2.51, Y 2.64, H 3.33, A 3.27, K 3.18, Q 3.49, T 3.34, W 2.74, F 2.79, E 3.71, L 3.27, V 2.79, S 3.38, P 3.23, I 2.98, C 4.26, N 2.85, D 3.23
T3: G 4.28, D 3.5, Q 2.86, L 3.31, I 2.93, W 2.53, N 3.79, K 3.28, Y 2.58, H 3.51, P 3.37, E 3.51, F 2.67, A 3.55, C 3.27, V 3.04, S 3.43, M 3.43, R 2.85
E7: I 2.62, D 3.08, V 2.35, N 2.72, Y 2.36, M 3.4, Q 3.16, G 3, T 3.01, K 3.29, L 2.49, P 3.42, H 3.44, S 3.05, C 3.93, W 2.03, A 2.65, F 2.71, R 2.33
P13: R 2.94, I 3.57, M 2.71, A 3.78, K 3.59, S 3.41, D 4.34, H 3.39, F 2.52, N 4.29, T 3.34, C 3.1, V 3.48, Q 3.67, W 2.71, E 4.69, Y 3.57, G 3.71, L 3.56
P9: T 3.43, E 3.26, F 3.22, H 3.78, M 3.12, I 2.83, V 3.5, L 3.65, N 3.58, C 3.53, W 2.74, R 3.94, G 3.58, Q 3.25, K 3.62, S 3.59, Y 2.99, D 3.68, A 3.52

Variants of: B2
Test: as above
Conditions: c terminus: a fixed tail appended

Protein stability index: each site, then its substitutions
L24: W 2.44, R 2.69, Q 2.71, H 2.65, M 2.16, G 3.33, A 2.42, D 3.11, V 2.18, E 2.65, T 2.28, K 2.96, N 2.25, Y 2.08, S 2.69, P 2.31, C 3.05, F 2.31, I 2.12
I22: D 2.88, Y 2.29, R 3.03, E 2.94, F 1.74, Q 2.92, P 2.58, W 2.45, H 2.55, N 2.74, L 2.28, T 2.56, M 2.31, S 3.18, V 2.58, K 2.51, G 2.79
E23: A 1.9, W 1.46, P 1.82, I 1.55, D 2.01, V 2.38, G 1.72, R 2.02, C 1.38, Y 2.38, Q 2.05, T 1.96, M 1.92, S 2.09, K 1.75, F 3.17, L 1.93, H 2.18, N 1.42
